Source: patent US20220073604A1 (ARGENX BVBA, published 2022)
Each block holds one binder with its values, some of them ahead of it.

What was measured:
[1] = biological target: IL-6 (bact-hIL-6, euk-hIL-6 and bact-cy IL-6; 'average binding' of Table 21); experiment: average binding level in the off-rate screen (unit not given; n = 3)
[2] = biological target: T1, eukaryotically produced human IL-6 (human, UniProt P05231 30-212); experiment: off-rate of Fab 111A7 variant on euk-hIL-6 (binding kinetics, SPR presumed; n = 3)
T1 construct: also called euk-hIL-6; EUK IL-6

[3] = biological target: T2, bacterially produced cynomolgus monkey IL-6 (cynomolgus monkey, UniProt P79341 28-212, limits assumed); experiment: off-rate of Fab 111A7 variant on bact-cy IL-6 (binding kinetics, SPR presumed; n = 3)
T2 construct: also called bact-cy IL-6; HIS-cyIL-6

[4] = biological target: T3, bacterially produced human IL-6 (human, UniProt P05231 30-212); experiment: off-rate of Fab 111A7 variant on bact-hIL-6 (binding kinetics, SPR presumed; n = 3)
T3 construct: also called bact-hIL-6; BACT IL-6

[5] = biological target: IL-6 (bact-hIL-6, euk-hIL-6 and bact-cy IL-6; 'average binding' of Table 21); experiment: average binding level in the off-rate screen (unit not given; n = 4)
[6] = biological target: T2, bacterially produced cynomolgus monkey …; experiment: off-rate of Fab 111A7 variant on bact-cy IL-6 (binding kinetics, SPR presumed; n = 4)
[7] = biological target: T4, eukaryotically produced human IL-6 (human, UniProt P05231 30-212); experiment: SPR (Biacore), periplasmic Fab
T4 construct: Immobilised on the Biacore chip; also called Euk IL-6; EUK IL-6 (3-1)
Method: (§1) The binding kinetics of periplasmic fractions of bacteria containing the mutant Fabs were tested using surface Plasmon resonance (Biacore) and the off-rate for each mutant was determined.

[8] = biological target: T5, bacterially produced human IL-6 (human, UniProt P05231 30-212); experiment: SPR (Biacore), periplasmic Fab
T5 construct: Immobilised on the Biacore chip; also called BACT IL-6 (2-1); bactIL-6
Method: as §1

[9] = biological target: T1, eukaryotically produced human IL-6; experiment: off-rate of Fab 111A7 variant on euk-hIL-6 (binding kinetics, SPR presumed; n = 1)
[10] = biological target: T3, bacterially produced human IL-6; experiment: off-rate of Fab 111A7 variant on bact-hIL-6 (binding kinetics, SPR presumed; n = 1)
[11] = biological target: IL-6 (bact-hIL-6, euk-hIL-6 and bact-cy IL-6; 'average binding' of Table 21); experiment: average binding level in the off-rate screen (unit not given; n = 1)
[12] = biological target: T2, bacterially produced cynomolgus monkey …; experiment: off-rate of Fab 111A7 variant on bact-cy IL-6 (binding kinetics, SPR presumed; n = 1)
[13] = biological target: T3, bacterially produced human IL-6; experiment: off-rate of Fab 111A7 variant on bact-hIL-6 (binding kinetics, SPR presumed; n = 5)
[14] = biological target: T2, bacterially produced cynomolgus monkey …; experiment: off-rate of Fab 111A7 variant on bact-cy IL-6 (binding kinetics, SPR presumed; n = 5)
[15] = biological target: T1, eukaryotically produced human IL-6; experiment: off-rate of Fab 111A7 variant on euk-hIL-6 (binding kinetics, SPR presumed; n = 5)
[16] = biological target: IL-6 (bact-hIL-6, euk-hIL-6 and bact-cy IL-6; 'average binding' of Table 21); experiment: average binding level in the off-rate screen (unit not given; n = 5)

average binding [1]: 102 | koff [2]: 4.77e-05 s⁻¹ | koff [3]: 0.000131 s⁻¹ | koff [4]: 8.5e-05 s⁻¹
B1: Fab 111A7M_A (CMC optimized variant of Fab 111A7, CDR3 methionine to alanine) (Fab, V domains shown)
VH: EVQLLESGGGLVQPGGSLRLSCAASGFTFSSYAMSWVRQAPGKGPEWVSRISAGGGSTYYGDSVKGRFTISRDNSKNTLYLQMNSLRAEDTAVYYCANRAGWGAGDYWGQGTLVTVSS
VL: QTVVTQEPSFSVSPGGTVTLTCGLSSGSVTASNYPGWYQQTPGQAPRALIYSTNDRHSGVPDRFSGSISGNKAALTITGAQAEDEADYYCALDIGDITEFGGGTQLTVL
notes: Fab; The VL is that of 111A7; also called M98X: A

average binding [5]: 109 | koff [6]: 0.000222 s⁻¹
B2: Fab 111A7 with the CDR3 methionine changed to H (Fab, V domains shown)
VH: EVQLLESGGGLVQPGGSLRLSCAASGFTFSSYAMSWVRQAPGKGPEWVSRISAGGGSTYYGDSVKGRFTISRDNSKNTLYLQMNSLRAEDTAVYYCANRAGWGHGDYWGQGTLVTVSS
VL: QTVVTQEPSFSVSPGGTVTLTCGLSSGSVTASNYPGWYQQTPGQAPRALIYSTNDRHSGVPDRFSGSISGNKAALTITGAQAEDEADYYCALDIGDITEFGGGTQLTVL

koff [7]: 4.67e-05 s⁻¹ | koff [8]: 5e-05 s⁻¹
B3: 111A7 Fab (W98, M100) (Fab, V domains shown)
VH: EVQLLESGGGLVQPGGSLRLSCAASGFTFSSYAMSWVRQAPGKGPEWVSRISAGGGSTYYGDSVKGRFTISRDNSKNTLYLQMNSLRAEDTAVYYCANRAGWGMGDYWGQGTLVTVSS
VL: QTVVTQEPSFSVSPGGTVTLTCGLSSGSVTASNYPGWYQQTPGQAPRALIYSTNDRHSGVPDRFSGSISGNKAALTITGAQAEDEADYYCALDIGDITEFGGGTQLTVL
notes: also called WGM

koff [9]: 6.78e-05 s⁻¹ | koff [10]: 0.000117 s⁻¹ | average binding [11]: 141 | koff [12]: 0.000184 s⁻¹
B4: Fab 111A7M_L (CMC optimized variant of Fab 111A7, CDR3 methionine to leucine) (Fab, V domains shown)
VH: EVQLLESGGGLVQPGGSLRLSCAASGFTFSSYAMSWVRQAPGKGPEWVSRISAGGGSTYYGDSVKGRFTISRDNSKNTLYLQMNSLRAEDTAVYYCANRAGWGLGDYWGQGTLVTVSS
VL: QTVVTQEPSFSVSPGGTVTLTCGLSSGSVTASNYPGWYQQTPGQAPRALIYSTNDRHSGVPDRFSGSISGNKAALTITGAQAEDEADYYCALDIGDITEFGGGTQLTVL
notes: Fab; The VL is that of 111A7; also called M98X: L

koff [13]: 9.81e-05 s⁻¹ | koff [14]: 0.000146 s⁻¹ | koff [15]: 5.46e-05 s⁻¹ | average binding [16]: 118
B5: Fab 111A7M_S (CMC optimized variant of Fab 111A7, CDR3 methionine to serine) (Fab, V domains shown)
VH: EVQLLESGGGLVQPGGSLRLSCAASGFTFSSYAMSWVRQAPGKGPEWVSRISAGGGSTYYGDSVKGRFTISRDNSKNTLYLQMNSLRAEDTAVYYCANRAGWGSGDYWGQGTLVTVSS
VL: QTVVTQEPSFSVSPGGTVTLTCGLSSGSVTASNYPGWYQQTPGQAPRALIYSTNDRHSGVPDRFSGSISGNKAALTITGAQAEDEADYYCALDIGDITEFGGGTQLTVL
notes: Fab; The VL is that of 111A7; also called M98X: S
